Measurements taken from paper PMC3315506, “A Single Gene Target of an ETS-Family Transcription Factor Determines Neuronal CO2-Chemosensitivity”.

Assays:
GST::ETS-5 [1] = biological target: T1, GST::ETS-5 (Caenorhabditis elegans, UniProt Q18579 1-208); test: competition; scrambled competitor 10-500x molar excess over labeled N1; did not block; EMSA: 1 ug GST::ETS-5 or 2 ug GST, 0.1 pmol 3'-biotin duplex, room temperature 20 min, 6% polyacrylamide gel in 0.5x TBE; binding buffer, salt and pH not stated; conditions: protein: recombinant; tags: N-terminal GST (pGEX); label: unlabeled; blunt
T1 sequence: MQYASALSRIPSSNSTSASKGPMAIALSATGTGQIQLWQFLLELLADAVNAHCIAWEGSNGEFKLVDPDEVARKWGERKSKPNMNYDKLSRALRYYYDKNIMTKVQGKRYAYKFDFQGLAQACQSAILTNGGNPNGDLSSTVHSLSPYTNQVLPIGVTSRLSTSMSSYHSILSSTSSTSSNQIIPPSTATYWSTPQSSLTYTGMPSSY

GST::ETS-5 [2] = biological target: T1, GST::ETS-5; test: EMSA; also blocked by excess unlabeled probe (10-500x); EMSA: 1 ug GST::ETS-5 or 2 ug GST, 0.1 pmol 3'-biotin duplex, room temperature 20 min, 6% polyacrylamide gel in 0.5x TBE; binding buffer, salt and pH not stated; conditions: protein: recombinant; tags: N-terminal GST (pGEX); label: 3'-biotin (labeled probe); blunt

B1: scrambled competitor (dsDNA)
DNA 1: CTGACCCCGTGTCGCTAATAGACTCAGTTACGCAAGATGG
DNA 2: CCATCTTGCGTAACTGAGTCTATTAGCGACACGGGGTCAG
Question: Does B1 bind (GST::ETS-5 [1])?
Answer: Result: no binding

B2: gcy-9 promoter ETS-site probe (45 bp) (dsDNA)
DNA 1: ATCCACTTCCGATGGGCCCTTCCGGCATGATAAGAAGTGAGTGGC
DNA 2: GCCACTCACTTCTTATCATGCCGGAAGGGCCCATCGGAAGTGGAT
Question: Does B2 bind (GST::ETS-5 [2])?
Answer: Result: binds
